According to paper PMC4957052 (The Journal of Biological Chemistry, 2016):

T1: M. musculus αE-catenin (M. musculus), P26231
T1 chain: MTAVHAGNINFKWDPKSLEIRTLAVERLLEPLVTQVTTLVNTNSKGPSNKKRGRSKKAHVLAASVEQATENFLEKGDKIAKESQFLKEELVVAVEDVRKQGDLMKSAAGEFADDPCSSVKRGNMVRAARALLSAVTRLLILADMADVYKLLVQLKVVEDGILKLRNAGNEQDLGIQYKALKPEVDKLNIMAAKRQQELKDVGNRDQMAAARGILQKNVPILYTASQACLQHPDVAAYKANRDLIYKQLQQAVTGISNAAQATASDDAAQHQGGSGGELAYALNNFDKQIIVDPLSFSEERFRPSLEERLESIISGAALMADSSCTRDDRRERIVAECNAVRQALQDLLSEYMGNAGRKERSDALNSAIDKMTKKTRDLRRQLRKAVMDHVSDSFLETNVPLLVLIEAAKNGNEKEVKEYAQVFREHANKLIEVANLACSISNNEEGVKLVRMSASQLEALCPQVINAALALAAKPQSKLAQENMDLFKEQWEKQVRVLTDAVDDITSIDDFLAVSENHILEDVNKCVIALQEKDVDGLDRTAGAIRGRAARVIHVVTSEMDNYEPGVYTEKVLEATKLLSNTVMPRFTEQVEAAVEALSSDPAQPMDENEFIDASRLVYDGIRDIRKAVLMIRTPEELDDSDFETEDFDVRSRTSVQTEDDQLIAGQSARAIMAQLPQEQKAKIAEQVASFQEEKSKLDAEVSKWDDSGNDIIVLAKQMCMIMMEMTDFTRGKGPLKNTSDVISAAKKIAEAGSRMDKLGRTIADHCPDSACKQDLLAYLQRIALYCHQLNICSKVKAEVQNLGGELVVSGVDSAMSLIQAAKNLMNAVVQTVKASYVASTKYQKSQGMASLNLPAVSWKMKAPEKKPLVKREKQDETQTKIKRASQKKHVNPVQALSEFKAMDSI

T2: mouse β-catenin (GST cleaved) (mouse, UniProt Q02248 1-781)
T2 construct: β-catenin, mouse; Probably the construct of m7 (full length) after TEV cleavage; source: E. coli BL21(DE3), purified (glutathione-agarose, TEV cleavage, Mono Q, S200 gel filtration)
T2 sequence (looked up): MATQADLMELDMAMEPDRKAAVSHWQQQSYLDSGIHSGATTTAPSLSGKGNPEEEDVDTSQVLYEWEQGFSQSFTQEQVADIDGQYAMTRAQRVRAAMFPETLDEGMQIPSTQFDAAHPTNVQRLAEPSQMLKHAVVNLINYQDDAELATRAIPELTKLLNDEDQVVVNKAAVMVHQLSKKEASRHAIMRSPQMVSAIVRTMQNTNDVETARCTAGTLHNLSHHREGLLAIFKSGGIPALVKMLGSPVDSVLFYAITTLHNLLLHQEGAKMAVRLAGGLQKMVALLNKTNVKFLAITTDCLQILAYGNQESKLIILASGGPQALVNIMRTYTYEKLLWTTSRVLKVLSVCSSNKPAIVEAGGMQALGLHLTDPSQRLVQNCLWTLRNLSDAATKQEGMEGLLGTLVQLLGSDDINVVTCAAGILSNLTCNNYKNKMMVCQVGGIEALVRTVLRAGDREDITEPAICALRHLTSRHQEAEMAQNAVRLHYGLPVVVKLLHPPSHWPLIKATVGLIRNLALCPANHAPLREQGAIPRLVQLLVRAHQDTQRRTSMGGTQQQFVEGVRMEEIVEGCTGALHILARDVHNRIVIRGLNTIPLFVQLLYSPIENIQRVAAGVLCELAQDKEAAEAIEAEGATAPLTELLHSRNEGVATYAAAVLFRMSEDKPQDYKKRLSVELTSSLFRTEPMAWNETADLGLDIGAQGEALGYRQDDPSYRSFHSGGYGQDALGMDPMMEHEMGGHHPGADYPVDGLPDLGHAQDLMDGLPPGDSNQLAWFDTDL


Columns and labels:
[1] = molecular target: T1, M. musculus αE-catenin (M. musculus), …; experiment: SEC + other: sucrose density gradient centrifugation; analytical Superdex 200 at 4 °C in 20 mM Tris pH 8.0, 150 mM NaCl, 1 mM DTT, protein injected at 25-30 μM (25-50 μM in the results); 5-20% sucrose gradients, 200,000 x g 4 h 4 °C, protein loaded at ≥20 μM; molecular mass from Stokes radius and sedimentation coefficient; conditions: remark: other sources report otherwise
[2] = molecular target: the molecule itself; experiment: as above
[3] = molecular target: T2, mouse β-catenin (GST cleaved); experiment: not stated; purified mouse β-catenin mixed with αT-catenin; data not shown; conditions: both partners purified

Binder | stoichiometry N [2] | also measured
M. musculus αE-catenin, P26231 1-906 (natural protein) MTAVHAGNINFKWDPKSLEIRTLAVERLLEPLVTQVTTLVNTNSKGPSNKKRGRSKKAHVLAASVEQATENFLEKGDKIAKESQFLKEELVVAVEDVRKQGDLMKSAAGEFADDPCSSVKRGNMVRAARALLSAVTRLLILADMADVYKLLVQLKVVEDGILKLRNAGNEQDLGIQYKALKPEVDKLNIMAAKRQQELKDVGNRDQMAAARGILQKNVPILYTASQACLQHPDVAAYKANRDLIYKQLQQAVTGISNAAQATASDDAAQHQGGSGGELAYALNNFDKQIIVDPLSFSEERFRPSLEERLESIISGAALMADSSCTRDDRRERIVAECNAVRQALQDLLSEYMGNAGRKERSDALNSAIDKMTKKTRDLRRQLRKAVMDHVSDSFLETNVPLLVLIEAAKNGNEKEVKEYAQVFREHANKLIEVANLACSISNNEEGVKLVRMSASQLEALCPQVINAALALAAKPQSKLAQENMDLFKEQWEKQVRVLTDAVDDITSIDDFLAVSENHILEDVNKCVIALQEKDVDGLDRTAGAIRGRAARVIHVVTSEMDNYEPGVYTEKVLEATKLLSNTVMPRFTEQVEAAVEALSSDPAQPMDENEFIDASRLVYDGIRDIRKAVLMIRTPEELDDSDFETEDFDVRSRTSVQTEDDQLIAGQSARAIMAQLPQEQKAKIAEQVASFQEEKSKLDAEVSKWDDSGNDIIVLAKQMCMIMMEMTDFTRGKGPLKNTSDVISAAKKIAEAGSRMDKLGRTIADHCPDSACKQDLLAYLQRIALYCHQLNICSKVKAEVQNLGGELVVSGVDSAMSLIQAAKNLMNAVVQTVKASYVASTKYQKSQGMASLNLPAVSWKMKAPEKKPLVKREKQDETQTKIKRASQKKHVNPVQALSEFKAMDSI |  | stoichiometry N [1]: 2
αT-catenin V94D ΔABD (aa 1-659) (domain or fragment, M. musculus, UniProt Q65CL1 1-659, looked up, αT-catenin, Mus musculus, N-terminal head region aa 1-659 (ABD aa 660-895 deleted) with V94D; source: E. coli BL21(DE3), purified (glutathione-agarose, TEV cleavage, Mono Q, S200 gel filtration)) MSAETPITLNMDTQDLQIQTFTVEKLLEPLIIQVTTLVNCPQNPSNRKKGRSKRARVLLASVEEATWNLLDKGEMIAKEATVLKEELAAALQEDRKESKALKVSAERFTDDPCYLPKREAVVQAARALLAAVTRLLVLADMIDVMCLLQHVSSFQRTFESLKNVSNKSDLQRTYQKLGKELESLDYLAFKRQQDLKSPSQRDEIAGARATLKENSPLLHSICSACLEHSDVASLKASKDTVCEEIQNALDVISNASQGIQNAPAPPEPQAATLGSAFDELENLIVLNPLTVTEEDVRPSLEKRLEAIISGAALLADSSCTRDLHRERIIAECNAIRQALQDLLTEYMSNTGKTERSNTLNTAIVNMSKKTRDLRRQLRKAIIDHISDSFLDTTVPLLVLIEAAKNGRVKEIKDYAAIFHEHTGRLVEVANLACSMSTNEDGIKIVRIAANHLETLCPQIINAALALASRPKSQVVKNTMEMYKRTWEHYIHVLTEAVDDITSIDDFLAVSESHILEDVNKCIIALRDQDADNLDRAAGAIRGRAARVAHIVAGEMDSYEPGAYTEGVMRNVNFLTSTVIPEFVTQVNVALDALSKNSLTALDDNQFVDISKKIYDTIHDIRCSVMMIRTPEELEDVSDLEDDHEVRSHTSIQTEGKTDR | 2 | 
M. musculus αT-catenin (wild type, full length) (natural protein, UniProt Q65CL1 1-895, looked up, Cloned into pGEX-TEV; cleaved from GST with tobacco etch virus protease; also called αT (testes)-catenin; WT αT-catenin; source: E. coli BL21(DE3), purified (glutathione-agarose, TEV cleavage, Mono Q, S200 gel filtration)) MSAETPITLNMDTQDLQIQTFTVEKLLEPLIIQVTTLVNCPQNPSNRKKGRSKRARVLLASVEEATWNLLDKGEMIAKEATVLKEELAAALQEVRKESKALKVSAERFTDDPCYLPKREAVVQAARALLAAVTRLLVLADMIDVMCLLQHVSSFQRTFESLKNVSNKSDLQRTYQKLGKELESLDYLAFKRQQDLKSPSQRDEIAGARATLKENSPLLHSICSACLEHSDVASLKASKDTVCEEIQNALDVISNASQGIQNAPAPPEPQAATLGSAFDELENLIVLNPLTVTEEDVRPSLEKRLEAIISGAALLADSSCTRDLHRERIIAECNAIRQALQDLLTEYMSNTGKTERSNTLNTAIVNMSKKTRDLRRQLRKAIIDHISDSFLDTTVPLLVLIEAAKNGRVKEIKDYAAIFHEHTGRLVEVANLACSMSTNEDGIKIVRIAANHLETLCPQIINAALALASRPKSQVVKNTMEMYKRTWEHYIHVLTEAVDDITSIDDFLAVSESHILEDVNKCIIALRDQDADNLDRAAGAIRGRAARVAHIVAGEMDSYEPGAYTEGVMRNVNFLTSTVIPEFVTQVNVALDALSKNSLTALDDNQFVDISKKIYDTIHDIRCSVMMIRTPEELEDVSDLEDDHEVRSHTSIQTEGKTDRAKMTQLPEAEKEKIAEQVADFKKVKSKLDAEIEIWDDTSNDIIVLAKKMCMIMMEMTDFTRGKGPLKHTTDVIYAAKMISESGSRMDVLARQIANQCPDPPCKQDLLAYLEQIKFYSHQLKICSQVKAEIQNLGGELIVSALDSVTSLIQAAKNLMNAVVQTVKMSYIASTKIIRIQSSAGPRHPVVMWRMKAPAKKPLIKREKPEETWAAVRRGSAKKKIHPVQVMSEFRGRQVY |  | stoichiometry N [3]: 1
M. musculus αT-catenin V94D (full length) (natural protein, UniProt Q65CL1 1-895, looked up, αT-catenin, Mus musculus, full length, with the ARVC-linked V94D change made by site-directed mutagenesis; here it was put into the mouse protein; also called V94D mutant; V94D homodimer; source: E. coli BL21(DE3), purified (glutathione-agarose, TEV cleavage, Mono Q, S200 gel filtration)) MSAETPITLNMDTQDLQIQTFTVEKLLEPLIIQVTTLVNCPQNPSNRKKGRSKRARVLLASVEEATWNLLDKGEMIAKEATVLKEELAAALQEDRKESKALKVSAERFTDDPCYLPKREAVVQAARALLAAVTRLLVLADMIDVMCLLQHVSSFQRTFESLKNVSNKSDLQRTYQKLGKELESLDYLAFKRQQDLKSPSQRDEIAGARATLKENSPLLHSICSACLEHSDVASLKASKDTVCEEIQNALDVISNASQGIQNAPAPPEPQAATLGSAFDELENLIVLNPLTVTEEDVRPSLEKRLEAIISGAALLADSSCTRDLHRERIIAECNAIRQALQDLLTEYMSNTGKTERSNTLNTAIVNMSKKTRDLRRQLRKAIIDHISDSFLDTTVPLLVLIEAAKNGRVKEIKDYAAIFHEHTGRLVEVANLACSMSTNEDGIKIVRIAANHLETLCPQIINAALALASRPKSQVVKNTMEMYKRTWEHYIHVLTEAVDDITSIDDFLAVSESHILEDVNKCIIALRDQDADNLDRAAGAIRGRAARVAHIVAGEMDSYEPGAYTEGVMRNVNFLTSTVIPEFVTQVNVALDALSKNSLTALDDNQFVDISKKIYDTIHDIRCSVMMIRTPEELEDVSDLEDDHEVRSHTSIQTEGKTDRAKMTQLPEAEKEKIAEQVADFKKVKSKLDAEIEIWDDTSNDIIVLAKKMCMIMMEMTDFTRGKGPLKHTTDVIYAAKMISESGSRMDVLARQIANQCPDPPCKQDLLAYLEQIKFYSHQLKICSQVKAEIQNLGGELIVSALDSVTSLIQAAKNLMNAVVQTVKMSYIASTKIIRIQSSAGPRHPVVMWRMKAPAKKPLIKREKPEETWAAVRRGSAKKKIHPVQVMSEFRGRQVY | 2 | 
